# In US20240287177A1 (Merck KGaA, published 2024):
# Residue numbers refer to the chain shown, from its start.
# T1: recombinant human NKp30 extracellular domain, his-tagged (human, UniProt O14931 19-135)
# T1 construct: BLI used human NKp30 bought from Abcam (his-tagged ECD); also called rh NKp30 ECD; human NKp30 (Abcam); not shown: his tag
# T1 sequence: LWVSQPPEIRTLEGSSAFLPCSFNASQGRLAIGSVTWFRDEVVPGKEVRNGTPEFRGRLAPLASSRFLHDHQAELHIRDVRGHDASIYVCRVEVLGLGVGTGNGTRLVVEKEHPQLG
# B1: VHH7 SEEDbody eff- (bispecific antibody, part only; not given: silenced SEED Fc and cetuximab Fab, V domains shown, not shown: another chain or arm of the molecule; a dimerising Fc or GST; small tags and cut ends)
# VHH: DVQLQESGGGLAQPGGSLRLSCAASGFTFSSYDMGWYRQVPGKECELVAAIFSAGGSTIYADSVKGRFTISRDNAKNTVFLQMNSLKPEDTAVYYCNKAPPFTTIQPTCVMIDTQLGAWGQGTQVTVSS
# B2: VHH8 SEEDbody eff- (bispecific antibody, part only; not given: silenced SEED Fc and cetuximab Fab, V domains shown, not shown: another chain or arm of the molecule; a dimerising Fc or GST; small tags and cut ends)
# VHH: B1 VHH with V40A, G55D, R72S, T108M
# B3: VHH10 SEEDbody eff- (bispecific antibody, part only; not given: silenced SEED Fc and cetuximab Fab, V domains shown, not shown: another chain or arm of the molecule; a dimerising Fc or GST; small tags and cut ends)
# VHH: DVQLQESGGGSVQAGGSLRLSCAASGRTFSSNFMGWFRQAPNKDREFVAAIHWSGGSRAYADSVKGRFTISRDNTKDTVYLLVNSLKLEDTAVYYCAAEISWQTTGWTNLGSWGQGTQVTVSS
# B4: VHH12 SEEDbody eff- (bispecific antibody, part only; not given: silenced SEED Fc and cetuximab Fab, V domains shown, not shown: another chain or arm of the molecule; a dimerising Fc or GST; small tags and cut ends)
# VHH: B3 VHH with S11L, N32D, N42G, D44E, A59S, T75A, V83M, S101R, T108A
# B5: VHH5 SEEDbody eff- (bispecific antibody, part only; not given: silenced SEED Fc and cetuximab Fab, V domains shown, not shown: another chain or arm of the molecule; a dimerising Fc or GST; small tags and cut ends)
# VHH: DVQLQESGGGLVQPGESLRLSCLVSGVTYHFYDITWFRQAPGLEREGVSCISYASGSTKFADSVKGRFTISRDNAKNAVYLQMNSLKPEDTAVYFCATQGSGSCSDFMSADSVLSWGQGTQVTVSS
# B6: VHH4 SEEDbody eff- (bispecific antibody, part only; not given: silenced SEED Fc and cetuximab Fab, V domains shown, not shown: another chain or arm of the molecule; a dimerising Fc or GST; small tags and cut ends)
# VHH: B5 VHH with T98M
# B7: VHH3 SEEDbody eff- (bispecific antibody, part only; not given: silenced SEED Fc and cetuximab Fab, V domains shown, not shown: another chain or arm of the molecule; a dimerising Fc or GST; small tags and cut ends)
# VHH: B5 VHH with R19K, S57T, Q82E, D111G
# B8: VHH14 SEEDbody eff- (bispecific antibody, part only; not given: silenced SEED Fc and cetuximab Fab, V domains shown, not shown: another chain or arm of the molecule; a dimerising Fc or GST; small tags and cut ends)
# VHH: DVQLQESGGGLVQPGGSLRLSCEASGVTFNFYSMTWYRQAPGKERELVADITSEGRTEYAHSVKGRFIISRDDFGTMVYLQMNSLKPEDTAVYYCYTGGSWGQGTQVTVSS
# B9: VHH16 SEEDbody eff- (bispecific antibody, part only; not given: silenced SEED Fc and cetuximab Fab, V domains shown, not shown: another chain or arm of the molecule; a dimerising Fc or GST; small tags and cut ends)
# VHH: DVQLQESGGGLVQPGGSLRLSCTASGSIFSSLTMAWWRQAPGKQRELVAGITTDGSTDYADSVKGRFTISRDNAKNTVYLQMDSLKPEDTAVYYCNKSPYYDPTDYDSWGQGTQVTVSS
# B10: VHH6 SEEDbody eff- (bispecific antibody, part only; not given: silenced SEED Fc and cetuximab Fab, V domains shown, not shown: another chain or arm of the molecule; a dimerising Fc or GST; small tags and cut ends)
# VHH: DVQLQESGGGLVQTGGSLRLSCAASGLPFSKYAIAWFRQAPGKESEFLVVVSWSGDKFYQDNMKGRCTISRDNAKNTAYLQINSLQPEDTAVYYCAASGSYPVTDRYFYNFWGQGTQVTVSS
# B11: VHH9 SEEDbody eff- (bispecific antibody, part only; not given: silenced SEED Fc and cetuximab Fab, V domains shown, not shown: another chain or arm of the molecule; a dimerising Fc or GST)
# VHH: DVQLQESGGGLVQAGGSLRLSCAASGRGGASYAMGWFRQAPGKEREFVAAISWTGDTTYNVDSVKGRFTISSDNAKNPVYLDMSSLKPEDTAVYYCAAAHWTRVVAKGAMADEKKYEYWGQGTQVTVSS
# B12: VHH15 SEEDbody eff- (bispecific antibody, part only; not given: silenced SEED Fc and cetuximab Fab, V domains shown, not shown: another chain or arm of the molecule; a dimerising Fc or GST; small tags and cut ends)
# VHH: DVQLQESGGGLVQAGGSLRLSCAVSGSTFRLNVMGWYRQAPGKLRDLVAGITADGGVTNYADSVKGRFIISRDNAKNTVYLQMNSLKPEDTAIYYCNTAPANWGSWGQGTQVTVSS
# B13: VHH11 SEEDbody eff- (bispecific antibody, part only; not given: silenced SEED Fc and cetuximab Fab, V domains shown, not shown: another chain or arm of the molecule; a dimerising Fc or GST; small tags and cut ends)
# VHH: DVQLQESGGGLVQAGGSLRLSCAASGRTFSSDFMGWFRQAPGKEREFVAAIHWSGGSTSYADSVKGRFTISRDNAKDTVYLLMNSLKLEDTAVYYCAAEIRWLTTGWANLGSWGQGTQVTVSS
# B14: VHH13 SEEDbody eff- (bispecific antibody, part only; not given: silenced SEED Fc and cetuximab Fab, V domains shown, not shown: another chain or arm of the molecule; a dimerising Fc or GST; small tags and cut ends)
# VHH: B13 VHH with V12A, A14P, S17P, S30T, T58R, L103Q, T105A, A108V
# B15: VHH1 (parental, as tested in Example 8) (VHH)
# VHH: DVQLQESGGGLVQPGGSLRLSCATSGFTLDDYTIGWVRQAPGKEHEGVSCFSPSDGTTYYADSVKGRFTFSRDNAKNTVYLQMNSLKPEDTAVYYCAASFADGSSWCYDYWGQGTQVTVSS
# notes: expressed and measured by BLI 'as described in Experiment 1' (there: bispecific SEEDbody on anti-human Fc sensors)
# B16: VHH1.4 (humanized) (VHH)
# VHH: B15 VHH with D1E, Q5V, L11V, E44G, H45L, K87R, P88A, Q116L
# notes: as for B15
# B17: VHH1.2 (humanized) (VHH)
# VHH: B15 VHH with D1E, Q5V, L11V, V79L, K87R, P88A, Q116L
# notes: as for B15
# B18: VHH1.3 (humanized) (VHH)
# VHH: B15 VHH with D1E, Q5V, L11V, T24A, F70I, V79L, K87R, P88A, Q116L
# notes: as for B15
# B19: VHH1.1 (humanized) (VHH)
# VHH: B15 VHH with D1E, Q5V, L11V, K87R, P88A, Q116L
# notes: as for B15
# B20: VHH2 (parental, as tested in Example 9) (VHH)
# VHH: DVQLQESGGGLVQAGGSLRLSCAVSGQTWTNYHIGWFRQAPGKARESVASIEWGGRGTYATDSVKGRFTISRDNAKNTVYLQMNSLKPEDTAVYYCAAQSSSRSPLESNYDYWGQGTQVTVSS
# notes: as for B15
# B21: VHH2.2 (humanized) (VHH)
# VHH: B20 VHH with D1E, Q5V, L11V, A14P, K87R, P88A, Q118L
# notes: as for B15
# B22: VHH2.16 (humanized) (VHH)
# VHH: EVQLVESGGGVVQPGGSLRLSCAASGQTWTNYHIGWFRQAPGKGLEWVASIEWGGRGTYATDSVKGRFTISRDNAKNTLYLQMNSLRAEDTAVYYCAAQSSSRSPLESNYDYWGQGTLVTVSS
# notes: as for B15
# B23: VHH2.1 (humanized) (VHH)
# VHH: B20 VHH with D1E, Q5V, L11V, K87R, P88A, Q118L
# notes: as for B15
# B24: VHH2.12 (humanized) (VHH)
# VHH: B22 VHH with L79V
# notes: as for B15
# B25: VHH2.5 (humanized) (VHH)
# VHH: B22 VHH with A24V, W47S, L79V
# notes: as for B15
# B26: VHH2.6 (humanized) (VHH)
# VHH: B22 VHH with A24V, F37V, W47S, L79V
# notes: as for B15
# B27: VHH2.11 (humanized) (VHH)
# VHH: B22 VHH with W47S, L79V
# notes: as for B15
# B28: VHH2.7 (humanized) (VHH)
# VHH: B22 VHH with A24V, W47S
# notes: as for B15
# B29: VHH2.3 (humanized) (VHH)
# VHH: B22 VHH with A24V, G44A, L45R, W47S
# notes: as for B15
# B30: VHH2.8 (humanized) (VHH)
# VHH: B22 VHH with A24V
# notes: as for B15
# B31: VHH2.15 (humanized) (VHH)
# VHH: B22 VHH with W47S
# notes: as for B15
# Target: NKp30 on human NK cells (human) (UniProt O14931)
# Experiment: cell-based or functional assay
Binder,"EC50 (nM), MNC based killing of A431 cells, E:T 80:1 [nM]","Max. Killing (% Lysis), MNC based killing of A431 cells, E:T 80:1 [% Lysis]","Max. IFNγ release (pg/ml), NK cells with A431 cells [pg/mL]","Max. TNFα release (pg/ml), NK cells with A431 cells [pg/mL]"
B1,0.0433,49,–,–
B2,0.00899,50,595,109
B3,0.0146,51,–,–
B4,0.00207,49,–,–
B5,0.00286,56,635,119
B6,0.00592,55,560,129
B7,0.00284,53,–,–
B8,0.00144,51,–,–
B9,0.00128,50,515,114
B10,1.43,42,–,–
B11,0.0161,53,–,–
B12,0.0013,50,–,–
B13,0.0111,50,–,–
B14,0.00241,51,–,–

# Target: T1, recombinant human NKp30 extracellular …
# Experiment: BLI as in Example 1
row,Binder,Kd [nM]
1,B15,0.248
2,B16,0.547
3,B17,0.293
4,B18,1.07
5,B19,0.275

# Target: T1, recombinant human NKp30 extracellular …
# Experiment: BLI as in Example 1
# Remark: another data set of the same source
row,Binder,Kd [nM]
1,B20,2.88
2,B21,2.1
3,B22,4.71
4,B23,2.91
5,B24,4.24
6,B25,2.92
7,B26,27.6
8,B27,4.7
9,B28,9.76
10,B29,9.97
11,B30,6.61
12,B31,12.3

# Target: T1, recombinant human NKp30 extracellular …
# Experiment: BLI as in Example 1, maximum binding capacity
row,Binder,Emax (nm)
1,B15,0.13
2,B16,0.12
3,B17,0.12
4,B18,0.12
5,B19,0.13

# Target: T1, recombinant human NKp30 extracellular …
# Experiment: BLI as in Example 1, maximum binding capacity
# Remark: another data set of the same source
row,Binder,Emax (nm)
1,B20,0.17
2,B21,0.15
3,B22,0.11
4,B23,0.18
5,B24,0.14
6,B25,0.11
7,B26,0.07
8,B27,0.16
9,B28,0.1
10,B29,0.13
11,B30,0.1
12,B31,0.07

# Target: recombinant human NKp30 extracellular domain, his-tagged (human) (UniProt O14931)
# Experiment: BLI, SEEDbody on anti-human Fc sensors, soluble NKp30, 1:1 fit
Binder,Kd [nM],koff [s⁻¹],kon [M⁻¹ s⁻¹]
B1,52.4,0.00352,67200
B2,0.322,0.000134,416000
B3,0.253,8.75e-05,346000
B4,0.982,0.000898,914000
B5,0.289,0.000186,643000
B6,2.57,0.000218,84800
B7,0.281,0.00017,604000
B8,0.31,0.000144,464000
B9,0.139,9.28e-05,666000
B10,292,0.129,442000
B11,4.99,0.00187,376000
B12,< 0.001,< 1e-07,440000
B13,1.02,0.000415,405000
B14,0.211,0.000162,766000
